# Assay results taken from US20060024271A1 (priority 2004, published 2006).
# Where two headings read alike, the source gives them in different places.
# B1: IFN-γ (protein, UniProt P01579 24-161, looked up)
# Interferon gamma: QDPYVKEAENLKKYFNAGHSDVADNGTLFLGILKNWKEESDRKIMQSQIVSFYFKLFKNFKDDQSIQKSVETIKEDMNVKFFNSNKKKRDDFEKLTNYSVTDLNVQRKAIHELIQVMAELSPAAKTGKRKRSQMLFRG
# Assays:
# Assay type in all cases: in vivo, BALB/c mice
# [1] = tested on: vaccinia virus; conditions: for survival of vaccinia infected mice: 5×10^3 U/mouse/day i.n., 5 days, started one day before infection, 8 LD50, 21 days monitoring
# [2] = tested on: vaccinia virus; conditions: IFN-γ 5,000 to 20,000 U i.n., daily for five days from one day after infection; 50 LD50
# [3] = tested on: vaccinia virus; conditions: 8 LD50
Molecule,survival of vaccinia infected mice [1] [%],"protection against severe vaccinia infection ([1]; IFN-α 5,000 U intranasal, 50 LD50 as printed in b34 (FIG. 2))",protection against severe vaccinia infection [2],"survival of vaccinia infected mice ([3]; IFN-γ 2,000 U only, i.n., 5 days from one day after infection) [%]","protection of vaccinia infected mice ([3]; IFN-γ 5,000 U) [%]"
IFN-α,100,70-80%,,,
B1,90,,70-80%,80,100
